Experimental data reported in IntAct's records for PubMed 21565615.

B1: Protein c-Fos (Mus musculus), P01101 (parent)
chain: MMFSGFNADYEASSSRCSSASPAGDSLSYYHSPADSFSSMGSPVNTQDFCADLSVSSANFIPTVTAISTSPDLQWLVQPTLVSSVAPSQTRAPHPYGLPTQSAGAYARAGMVKTVSGGRAQSIGRRGKVEQLSPEEEEKRRIRRERNKMAAAKCRNRRRELTDTLQAETDQLEDEKSALQTEIANLLKEKEKLEFILAAHRPACKIPDDLGFPEEMSVASLDLTGGLPEASTPESEEAFTLPLLNDPEPKPSLEPVKSISNVELKAEPFDDFLFPASSRPSGSETSRSVPDVDLSGSFYAADWEPLHSNSLGMGPMVTELEPLCTPVVTCTPGCTTYTSSFVFTYPEADSFPSCAAAHRKGSSSNEPSSDSLSSPTLLAL

Variants of: B1
Settings: with esr2_mouse Esr2, O08537
esr2_mouse Esr2, O08537, sequence (O08537 whole entry): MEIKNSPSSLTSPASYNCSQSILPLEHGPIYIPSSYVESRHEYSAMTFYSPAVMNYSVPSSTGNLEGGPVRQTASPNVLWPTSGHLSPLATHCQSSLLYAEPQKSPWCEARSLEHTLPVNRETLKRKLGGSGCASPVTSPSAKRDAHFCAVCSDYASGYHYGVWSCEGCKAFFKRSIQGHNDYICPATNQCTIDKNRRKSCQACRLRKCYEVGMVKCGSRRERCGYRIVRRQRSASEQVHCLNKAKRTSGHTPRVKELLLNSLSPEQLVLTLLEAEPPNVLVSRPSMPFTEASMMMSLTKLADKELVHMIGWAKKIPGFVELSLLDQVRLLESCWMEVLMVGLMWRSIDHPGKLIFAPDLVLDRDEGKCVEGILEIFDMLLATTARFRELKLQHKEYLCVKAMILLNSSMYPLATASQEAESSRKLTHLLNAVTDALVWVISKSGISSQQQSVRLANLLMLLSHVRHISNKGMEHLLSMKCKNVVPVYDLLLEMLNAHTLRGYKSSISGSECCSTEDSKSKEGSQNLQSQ

effect of a mutation on the interaction	Variant
decreasing interaction	S362A
increasing interaction	S362E
